# Measurements as given in patent US20230340112A1.
# Positions count from the first letter of the chain named. In names and notes the source's numbering stands.
# B1: 89H-IgG4 S228P (antibody, V domains shown)
# VH: EVQLVESGGGLVQPGGSLRLSCAASGFSLSTYAMIWVRQAPGKGLEWVGIISPSGTTYYATWAKGRFTISRDNSKNTLYLQMNSLRAEDTAVYYCARAGSGGWDYFNIWGQGTLVTVSS
# VL: DIQMTQSPSSLSASVGDRVTITCQASQSISSYLSWYQQKPGKAPKLLIYYASNLASGVPSRFSGSGSGTDFTLTISSLQPEDFATYYCQSYYYSNNYNWAFGGGTKVEIK
# B2: 14H2B-IgG4 S228P (antibody, V domains shown)
# VH: EVQLVESGGGLVQPGGSLRLSCAASGIDLSSYSMIWVRQAPGKGLEWIGIIYTGGSTDYASWAKGRFTISRDNSKNTLYLQMNSLRAEDTAVYYCARENSHDTFDPWGQGTLVTVSS
# VL: DIQMTQSPSSLSASVGDRVTITCQSSQSVYTNYQSWYQQKPGKAPKLLIYAASTLASGVPSRFSGSGSGTDFTLTISSLQPEDFATYYCLGSYVSSGWYYAFGGGTKVEIK
# B3: 8H- IgG4 S228P (antibody, V domains shown)
# VH: EVQLVESGGGLVQPGGSLRLSCAASGFSFSSSDYMCWVRQAPGKGLEWVGCINSGSDTTSYATWAKGRFTISRDNAKNTLYLQMNSLRAEDTAVYYCARGYGSAGANGYVIGMKYLNLWGQGTLVTVSS
# VL: DIQMTQSPSSLSASVGDRVTITCQASQSIGSNLAWYQQKPGKAPKLLIYTASTLESGVPSRFSGSGSGTDFTLTISSLQPEDFATYYCQCTYGSSSSGYPFGGGTKVEIK
# B4: 4H- IgG4 S228P (antibody, V domains shown)
# VH: EVQLVESGGGLVQPGGSLRLSCAASGFSFSSYYFMCWVRQAPGKGLEWVACIDAGYSGGSHYASWAKGRFTISRDNSKNTLYLQMNSLRAEDTAVYYCARAYEYGYGGYDLWGQGTLVTVSS
# VL: DIQMTQSPSSLSASVGDRVTITCQASQSIDSNLAWYQQKPGKAPKLLIYRASGLESGVPSRFSGSGSGTDFTLTISSLQPEDFATYYCQCTYGSNDSGNYANAFGGGTKVEIK
# B5: 4E10-IgG4 S228P (antibody, V domains shown)
# VH: EVQLVESGGGLVQPGGSLRLSCAASGFSLSNYEMIWVRQAPGKGLEWVGIIYVSRSTHYASWAKGRFTISRDNSKNTLYLQMNSLRAEDTAVYYCGRYLASGGFNIWGQGTLVTVSS
# VL: DIQMTQSPSTLSASVGDRVTITCQASHNIYSNLAWYQQKPGKAPKLLIYDASKLASGVPSRFSGSGSGTEFTLTISSLQPDDFATYYCQSYYGNSYPFGGGTKVEIK
# B6: OSE-172 (antibody, from another filing, V domains shown)
# VH: EVQLVQSGAEVKKPGESLRISCKASGYSFTSYWVHWVRQMPGKGLEWMGNIDPSDSDTHYSPSFQGHVTLSVDKSISTAYLQLSSLKASDTAMYYCVRGGTGTLAYFAYWGQGTLVTVSS
# VL: DVVMTQSPLSLPVTLGQPASISCRSSQSLVHSYGNTYLYWFQQRPGQSPRLLIYRVSNRFSGVPDRFSGSGSGTDFTLKISRVEAEDVGVYYCFQGTHVPYTFGGGTKVEIKR
# B7: 44H-IgG4 S228P (antibody, V domains shown)
# VH: B2 VH with I27F, D28S, I48V, G55S, T57A, D58S
# VL: B2 VL with Q34L
# Molecular target: human SIRPα expressed on the surface of human monocyte-derived dendritic cells (human) (UniProt P78324)
# Assay: flow cytometry, mDC surface binding, donor/experiment 2
# Chain of human SIRPα expressed on the surface of human monocyte-derived dendritic cells (human) (P78324 31-504): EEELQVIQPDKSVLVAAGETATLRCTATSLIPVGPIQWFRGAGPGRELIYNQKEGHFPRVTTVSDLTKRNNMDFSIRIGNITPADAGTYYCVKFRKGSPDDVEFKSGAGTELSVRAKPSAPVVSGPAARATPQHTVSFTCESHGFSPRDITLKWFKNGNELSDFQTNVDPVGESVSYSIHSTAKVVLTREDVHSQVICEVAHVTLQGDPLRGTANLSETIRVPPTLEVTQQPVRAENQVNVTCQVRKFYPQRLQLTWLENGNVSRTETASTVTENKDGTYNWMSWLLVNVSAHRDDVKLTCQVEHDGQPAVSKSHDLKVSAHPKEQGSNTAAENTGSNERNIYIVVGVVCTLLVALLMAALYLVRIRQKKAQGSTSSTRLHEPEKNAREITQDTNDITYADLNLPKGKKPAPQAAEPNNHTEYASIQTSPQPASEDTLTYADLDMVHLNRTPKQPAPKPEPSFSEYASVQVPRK
row,Kd,Binder
1,0.923 nM,B1
2,0.953 nM,B2

# Molecular target: human SIRPα expressed on the surface of human monocyte-derived dendritic cells (human) (UniProt P78324)
# Assay: flow cytometry on human monocyte-derived dendritic cells
row,Kd,Binder
1,1.66 nM,B3
2,0.0881 nM,B4
3,0.378 nM,B1
4,0.264 nM,B5
5,0.572 nM,B6
6,0.686 nM,B2
7,0.672 nM,B7

# Molecular target: human SIRPα expressed on the surface of human monocyte-derived dendritic cells (human) (UniProt P78324)
# Assay: flow cytometry, mDC surface binding, donor/experiment 4
row,Kd,Binder
1,0.908 nM,B1
2,1.33 nM,B2

# Molecular target: human SIRPα expressed on the surface of human monocyte-derived dendritic cells (human) (UniProt P78324)
# Assay: flow cytometry, mDC surface binding, donor/experiment 3
row,Kd,Binder
1,0.881 nM,B1
2,0.99 nM,B2

# Molecular target: human SIRPα expressed on the surface of human monocyte-derived dendritic cells (human) (UniProt P78324)
# Assay: flow cytometry, mDC surface binding, donor/experiment 1
row,Kd,Binder
1,1.04 nM,B1
2,1.48 nM,B2
